Patent publication US20260275304A1, “METHODS AND COMPOSITIONS FOR GLYPHOSATE TOLERANCE IN PLANTS” (Monsanto Technology LLC, priority 2023, published 2026)
Residue numbers refer to the chain shown, from its start. Numbers in names are those of the source. Like-named read-outs stand apart in the source and are kept apart here.

B1: TIPS: Zea mays EPSPS double mutant T102I and P106S, SEQ ID NO:9; positive control (protein)
chain: AGAEEIVLQPIKEISGTVKLPGSKSLSNRILLLAALSEGTTVVDNLLNSEDVHYMLGALRTLGLSVEADKAAKRAVVVGCGGKFPVEDSKEEVQLFLGNAGIAMRSLTAAVTAAGGNATYVLDGVPRMRERPIGDLVVGLKQLGADVDCFLGTDCPPVRVNGIGGLPGGKVKLSGSISSQYLSALLMAAPLALGDVEIEIIDKLISIPYVEMTLRLMERFGVKAEHSDSWDRFYIKGGQKYKSPKNAYVEGDASSASYFLAGAAITGGTVTVEGCGTTSLQGDVKFAEVLEMMGAKVTWTETSVTVTGPPREPFGRKHLKAIDVNMNKMPDVAMTLAVVALFADGPTAIRDVASWRVKETERMVAIRTELTKLGASVEEGPDYCIITPPEKLNVTAIDTYDDHRMAMAFSLAACAEVPVAIRDPGCTRKTFPDYFDVLSTFVKN
modifications: Zea mays
notes: positive control
B2: TIPS-P126S-K296R: maize EPSPS variant, probably SEQ ID NO:11 (protein)
chain: B1 chain with P126S, K296R
modifications: Zea mays

Tests used:
[1] = tested on: S. cerevisiae strain sKR-024; experiment: Mock selection for glyphosate resistance, 50:50 inoculum, flow cytometry; type: cell-based, Saccharomyces cerevisiae
Method: Yeast cultures were either started directly from a random colony or from freezer stock and picked in triplicate into appropriate selective media, either YSC-Ura, YSC-Leu, and YSC-Ura-Leu. Cultures were grown for 48 hours at 30° C. to saturation phase. Fully grown yeast cultures were then diluted back to OD 0.01 and allowed to grow for 48 hours at 30° C. in a 96 deep-well plate shaker. Fluorescence was then analyzed via flow cytometry (BD Accuri C6 Flow Cytometer, BD Biosciences) at an excitation of 588 nm and emission of 633 nm for mKate2 RFP. Yeast populations of interest were then gated according to relative size and complexity using a logarithmic plot of side scatter (SSC) and forward scatter (FSC) and spectra were generated outlining RFP fluorescence intensity vs. cell count. FlowJo software was used to analyze all flow cytometry data.
To do so, a mock selection for glyphosate resistance was achieved by transforming wild-type EPSPS into sKR-024 containing an RFP cassette and TIPS into sKR-024 without an RFP cassette to enable flow cytometry tracking of population distributions. A 50:50 starting inoculum of each strain was cultured in yeast minimal media containing 0, 2.5, 5, 7.5, or 10 mM glyphosate.

transgenic maize plants [2] = experiment: Greenhouse glyphosate spray test on hybrid (hemizygous) transgenic maize; type: in vivo, Zea mays; conditions: for Average Injury At 1120 g/ha: Roundup PowerMax3, 1× field rate; for Average Injury At 1120 g/ha / Average Injury At 2240 g/ha: 18 days after treatment, scale of 0 to 100; for Average Injury At 2240 g/ha: Roundup PowerMax3, 2× field rate
Method: To further evaluate the performance of EPSPS variants for glyphosate tolerance, transgenic maize plants comprising a single copy of the transgene encoding the EPSPS variants TIPS-P126S-M217L-K296R or TIPS-P126S-K296R were grown to maturity. Homozygous transgenic plants were crossed with an inbred line to produce hybrid seeds.
Plants from the hybrid seeds (hemizygous for the transgenes) of two independent transformation events for each of the two variants were grown in the greenhouse for glyphosate spray test. Roundup® PowerMax3, a commercial formulation of glyphosate, was applied at the third leaf stage at two rates: 1120 gram/hectare (1× the field rate) and 2240 gram/hectare (2× the field rate). The controls included an untreated untransformed control without glyphosate treatment, an untransformed control sprayed with glyphosate, and a TIPS positive control both sprayed with glyphosate. Glyphosate herbicide injury (plant stunting, chlorosis, necrosis, malformation, and death) was assessed by visual inspection of the plants 18 days after herbicide treatment. Herbicide injury rate was presented on a scale of 0 to 100 with “0” being no visible crop injury and “100” being complete crop injury or death.

transgenic maize plants [3] = experiment: Glyphosate spray test on R0 transgenic maize plants; type: in vivo, Zea mays; conditions: for Percent of sprayed plants showing glyphosate injury: 0.75 lb ae/acre POST at V3-V4, seven days after application; for plants injured by the glyphosate spray: injury observed 1 week following treatment
Method: Two of the six EPSPS variants had developing plants greater than twenty-five. The extra developing R0 plants from these two variants were utilized in a glyphosate spray test to determine the tolerance provided by the EPSPS variants to a typical post glyphosate application to young plants. The R0 plants were sprayed with glyphosate applied postemergence (POST) at 0.75 lb ae (acid equivalent)/acre (0.84 kg ae/ha) at the V3-V4 stage. Treated plants were evaluated for injury seven days after glyphosate application.

maize EPSPS = experiment: In vitro characterization of EPSPS mutants (EnzChek phosphate assay, Michaelis-Menten kinetics, glyphosate Ki); type: biochemical, Zea mays; conditions: for Km: apparent Km, mean±S.E.; for Ki: inhibitory constant for glyphosate, no unit in table (around 800 μM)
Method: Activity was determined by quantifying release of Pi, coupled to a reaction with MESG, catalyzed by purine-nucleoside phosphorylase using the EnzChek Phosphate Assay Kit from Invitrogen, first published in 1992. 95 μL of master mix was added to each well and 5 μL of the varied substrate dilutions were multi-channeled into the plate to start the reaction simultaneously for all conditions. Absorbance measurements at 360 nm were taken every 10 seconds for 3 minutes to capture the initial reaction rate of each condition. Varying levels of substrate were added to generate the resulting reaction rate curves. Each condition was performed in triplicate. Ki was determined as previously described (Lu, et al., Protein Engineering, Design and Selection 30:395-399 (2017)). Data was fit to the Michaelis-Menten kinetics equation and were also validated through GraphPad Prism's built-in function for each variant.
For protein expression of EPSPS and its variants, E. coli BL21 (DE3) was used as the expression host. Electrocompetent cells were transformed with the corresponding constructed plasmids, pET28a (+) with selected EPSPS variants (wild-type, TIPS, TIPS P126S, TIPS K296R, TIPS P126S/K296R). A single colony of an E. coli BL21 (DE3) strain harboring one of the constructed plasmids was inoculated into 2 mL of Luria Bertani broth (LB) medium with 50 μg/mL kanamycin and grown overnight at 37° C./225 rpm. The overnight-grown culture (using 100 μl) was scaled up with 2000-fold dilution in a 500-mL triple baffled shake flask and grown to a cell density of 0.8 (optical density [OD600]) at 37° C./225 rpm. Protein expression was induced by adding 0.2 mM of isopropyl β-D-1-thiogalactopyranoside (IPTG) and cells were cultured for 24 hours at 20° C./225 rpm. The induced cell culture was harvested by centrifugation at 4,000 g and 4° C. for 20 mins. Cell pellets were then resuspended in 25 mL of Dulbecco's Phosphate Buffered Saline (DPBS) (Thermo Fisher Scientific, Waltham, MA) pH 7.0 buffer containing 10 mM imidazole, 1 g/L of lysozyme and 5 μl of Pierce™ Universal Nuclease (Thermo Fisher Scientific, Waltham, MA), followed by mixing on a rocker for 30 mins at 4° C. Subsequently, cells were lysed by sonication and the resulting cell lysate was centrifuged at 14,000 g and 4° C. for 20 minutes to obtain the supernatant that contains soluble proteins. Target proteins from the supernatant was purified by HisPur™ Ni-NTA Resin (Thermo Fisher Scientific, Waltham, MA) according to the manufacturer's instruction.
The eluate was dialyzed with 3C protease added to the dialysis cassette, into the appropriate buffer followed by size-exclusion fast protein liquid chromatography. All EPSP synthase variants were stored in 20 mM Tris (pH 7.5), 100 mM NaCl and 10 mM β-mercaptoethanol. The protein concentration was then determined by using the Coomassie Plus Bradford Assay kit (Thermo Fisher Scientific) and the Infinite M200 PRO microplate reader (Tecan, Männedorf, Switzerland) to measure the absorbance of assay mixtures. The presence and purity of the purified proteins were assessed by sodium dodecyl sulfate-polyacrylamide gel electrophoresis.
Enzymatic activity, including inhibitory constant Ki, for EPSPS and TIPS closely corroborate values determined by previous reports. Mutations P126S and K296R have beneficial effects on their own to both Km and kcat and are additive when combined, similar to the observations of the in vivo growth characterization. Furthermore, the high Ki is maintained for each of the variants, showing similar or slightly higher values of around 800 μM compared to the starting point, TIPS. These findings confirm the phenotype endowed by the dual-trait selection pressure employed during the directed evolution campaigns. Kinetic parameters of maize EPSPS with mutations discovered through directed evolution. In Table 4, initial velocity data were measured in triplicate and fit to the Michaelis-Menten equation. […]

[4] = PEP at saturation (roughly 10 times its Km), read-out: Km (S3P)
[5] = S3P at saturation (roughly 10 times its Km), read-out: Km (PEP)

Row | Molecule | cell count after addition of glyphosate ([1]; 0, 2.5, 5, 7.5 or 10 mM glyphosate) | cell count in the absence of glyphosate ([1]; 0 mM glyphosate) | tolerance to glyphosate (transgenic maize plants [2]; 2× field rate) | Average Injury At 1120 g/ha (transgenic maize plants [2]) | Average Injury At 2240 g/ha (transgenic maize plants [2]) | Percent of sprayed plants showing glyphosate injury (transgenic maize plants [3]) | plants injured by the glyphosate spray (transgenic maize plants [3]) | Km (maize EPSPS; [4]) | Km (maize EPSPS; [5]) | Ki (maize EPSPS) | tolerance to glyphosate (transgenic maize plants [2]; equivalent 1× field dose) | enzymatic efficiency relative to TIPS (maize EPSPS; higher than evolutionary starting point TIPS)
1 | B1 | consistent cell count across multiple levels of glyphosate | consistently lower cell count of TIPS relative to wild-type EPSPS | minor injuries | 0 | 1.25 | 30% | Three of the ten | 33.2 µM | 26.2 µM | 739 µM | – | –
2 | B2 | – | – | minor injuries | 0 | 17 | 0% | none | 16.8 µM | 15.5 µM | 871 µM | excellent tolerance | roughly 2.5 fold
